One molecule from patent US8138314B2, “Compositions and methods of monoclonal and polyclonal antibodies specific for T cell subpopulations” (Beth Israel Deaconess Medical Center, Inc., priority 2000, dated 2012) can be followed below.

Test [1] has as its system CD1d-reactive Vα24^+Vβ11^+ T cell lines. Description: Ex vivo expansion of invariant NK T cell lines with IL-12, stimulation with anti-CD3 and CD161 antibody. It is filed as cell-based, human. The note with it: for IFN-γ / IL-4 / Proliferation: plate-bound anti-CD3 and excess CD161 antibody. The source says:
NK T cells, CD1d-reactive T cells, or JαQ^+ T cells may be biased towards Th1-like NK or lymphokine-activated killer (LAK)-like cytotoxicity of invariant T cells, as well as, IFN-γ production to potentially augment their in vivo anti-tumor or anti-pathogen activity.

Test [2] relates to prostate cancer derived invariant NK T cells. Description: IL-12 treatment of prostate cancer derived invariant NK T cells during last week of culture, cytokine ELISA. It is filed as cell-based, human. On the procedure: Peripheral blood (10-20 ml) was drawn in heparin containing tubes from healthy donors and prostate cancer patients who had given their informed consent. PBMCs were isolated using Ficoll-Paque (Amersham Pharmacia, Uppsala, Sweden). Vα24 positive T cells were stained with an anti-Vα24 monoclonal antibody (C15) (Coulter, Miami, Fla.) followed by a goat anti-mouse IgG (H^+L) FITC conjugate (KPL, Gaithersburg, Md.) and were sorted by high speed FACS (Modular Flow FACS, Cytomation, Boulder, Colo.) (Dellabona et al., J. Exp. Med. 180:1171, 1994). Autologous PBMCs were irradiated (5000 rads) and used as APCs. The FACS purified Vα24^+ cells were initially co-cultured in 96 well flat bottomed plates (approximately 20,000 per well) with equal numbers of autologous irradiated PBMCs in the presence of α-GalCer (50 ng/ml, KRN7000, Kirin Brewery Co., Gunma, Japan) and recombinant IL-2 (100 U/ml) (National Cancer Institute, Bethesda, Md.). […]
In addition to being present at reduced levels, invariant NK T cells have reduced activity in prostate cancer patients. […] Released cytokine levels were determined in triplicates by capture ELISA with matched antibody pairs in relation to cytokine standards (Endogen, Inc. Cambridge, Mass.). […]
As invariant NK T cells may contribute to the anti-tumor effects of IL-12, it was next determined whether these cancer patient derived cells could respond to IL-12. […]
A general note: ELISA stands for enzyme-linked immunosorbent assay.

B1: IL-12: human recombinant IL-12 (Genetics Institute), cytokine biasing T cells towards Th1 responses (protein, UniProt P29459 23-219; P29460 23-328, looked up)
Interleukin-12 subunit alpha: RNLPVATPDPGMFPCLHHSQNLLRAVSNMLQKARQTLEFYPCTSEEIDHEDITKDKTSTVEACLPLELTKNESCLNSRETSFITNGSCLASRKTSFMMALCLSSIYEDLKMYQVEFKTMNAKLLMDPKRQIFLDQNMLAVIDELMQALNFNSETVPQKSSLEEPDFYKTKIKLCILLHAFRIRAVTIDRVMSYLNAS
Interleukin-12 subunit beta: IWELKKDVYVVELDWYPDAPGEMVVLTCDTPEEDGITWTLDQSSEVLGSGKTLTIQVKEFGDAGQYTCHKGGEVLSHSLLLLHKKEDGIWSTDILKDQKEPKNKTFLRCEAKNYSGRFTCWWLTTISTDLTFSVKSSRGSSDPQGVTCGAATLSAERVRGDNKEYEYSVECQEDSACPAAEESLPIEVMVDAVHKLKYENYTSSFFIRDIIKPDPPKNLQLKPLKNSRQVEVSWEYPDTWSTPHSYFSLTFCVQVQGKSKREKKDRVFTDKTSATVICRKNASISVRAQDRYYSSSWSEWASVPCS
For B1, in test [1] (line 1, established with IL-12), the IFN-γ/IL-4 is listed as more than 100, the IFN-γ is recorded as more than 500, the IL-4 came to 4.8 and the Proliferation is given as 56593. In test [1] (line 2, established with IL-12), this molecule gave an IFN-γ/IL-4 of 207, an IFN-γ of 331.8, an IL-4 of 1.6 and a Proliferation of 42499. Also, in test [2] (1 ng/ml during the last week of culture), the IFN-γ production entry is given as “marked increase in IFN-γ production”. Also, in test [2] (1 ng/ml during the last week of culture (FIG. 22E)), the “Ratios of IFN-γ/IL-4 production” value was “comparable to those in the healthy donors”.
